Results from patent publication US20240092890A1 (JUNTENDO EDUCATIONAL FOUNDATION, published 2024).

What was measured:
[1] = biological target: T1, protein having an Fc region and a His-tag added to the N-terminus of SEQ ID NO: 1; experiment: BLItz biolayer interferometry, Fc/His-SEQ ID NO: 1 protein on the biosensor
T1 construct: also called mutant CALR protein (antigen of the BLItz measurement); not shown: Fc region and His-tag at the N-terminus
T1 chain: RRMMRTKMRMRRM
In short: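 The Fc/His-tagged protein was loaded at 0.1 mg/mL onto Anti-Penta-HIS or Protein A biosensors. Antibodies were run at 500, 100 and 50 nM by biolayer interferometry, and the dissociation constant was derived from these binding curves.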

[2] = biological target: T2, Ins 5 type mutant CALR protein on UT-7/TPO CALR Ins 5 cells (UniProt P27797 18-417); experiment: cell-based or functional assay
T2 sequence (looked up): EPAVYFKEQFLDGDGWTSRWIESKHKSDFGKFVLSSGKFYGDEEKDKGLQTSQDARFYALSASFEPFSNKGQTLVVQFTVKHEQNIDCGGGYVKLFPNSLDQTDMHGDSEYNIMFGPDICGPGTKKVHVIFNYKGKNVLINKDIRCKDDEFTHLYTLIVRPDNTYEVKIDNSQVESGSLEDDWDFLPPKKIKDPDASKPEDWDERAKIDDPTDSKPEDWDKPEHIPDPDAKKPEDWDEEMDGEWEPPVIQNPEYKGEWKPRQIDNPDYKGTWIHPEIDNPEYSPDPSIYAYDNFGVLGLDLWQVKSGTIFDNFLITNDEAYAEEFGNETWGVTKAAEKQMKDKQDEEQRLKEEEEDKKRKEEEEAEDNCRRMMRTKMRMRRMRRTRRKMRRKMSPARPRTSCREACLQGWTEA

Binder | Kd [1] [nM] | EC50 of cytotoxic activity (calcein release, T-LAK effector cells) [2] [nM]
Antibody 23 (bispecific antibody, B3 Fab with hOKT3 scFv fused to the light chain N-terminus) heavy: QVQLQQSGAELVKPGSSVKISCKASGYTFTRNFIHWIKQQPGNGLEWIGWIFPGDGDTEYNQKFNGKATLTADKSSSTAYMQLSSLTSEDSAVYFCARGNYNYEYFDYWGQGVMVTVSSASTKGPSVFPLAPSSKSTSGGTAALGCLVKDYFPEPVTVSWNSGALTSGVHTFPAVLQSSGLYSLSSVVTVPSSSLGTQTYICNVNHKPSNTKVDKRVEPKSCHHHHHH light: QVQLVQSGGGVVQPGRSLRLSCKASGYTFTRYTMHWVRQAPGKGLEWIGYINPSRGYTNYNQKVKDRFTISRDNSKNTAFLQMDSLRPEDTGVYFCARYYDDHYSLDYWGQGTPVTVSSGGGGSGGGGSGGGGSDIQMTQSPSSLSASVGDRVTITCSASSSVSYMNWYQQTPGKAPKRWIYDTSKLASGVPSRFSGSGSGTDYTFTISSLQPEDIATYYCQQWSSNPFTFGQGTKLQITRGGGGSDIQMTQSPASLSASLGETVSIECLASEDIYSYLAWYQQKPGKSPQLLIFAANRLQDGVPSRFSGSGSGTQFSLKISGMQPEDEGDYFCLQGSKFPYTFGPGTKLELNRTVAAPSVFIFPPSDEQLKSGTASVVCLLNNFYPREAKVQWKVDNALQSGNSQESVTEQDSKDSTYSLSSTLTLSKADYEKHKVYACEVTHQGLSSPVTKSFNRGEC | 6.79 | 0.37
Antibody 26 (bispecific antibody, B3 Fab with hOKT3 scFv fused to the N-termini of both the heavy and the light chain) heavy: QVQLVQSGGGVVQPGRSLRLSCKASGYTFTRYTMHWVRQAPGKGLEWIGYINPSRGYTNYNQKVKDRFTISRDNSKNTAFLQMDSLRPEDTGVYFCARYYDDHYSLDYWGQGTPVTVSSGGGGSGGGGSGGGGSDIQMTQSPSSLSASVGDRVTITCSASSSVSYMNWYQQTPGKAPKRWIYDTSKLASGVPSRFSGSGSGTDYTFTISSLQPEDIATYYCQQWSSNPFTFGQGTKLQITRGGGGSQVQLQQSGAELVKPGSSVKISCKASGYTFTRNFIHWIKQQPGNGLEWIGWIFPGDGDTEYNQKFNGKATLTADKSSSTAYMQLSSLTSEDSAVYFCARGNYNYEYFDYWGQGVMVTVSSASTKGPSVFPLAPSSKSTSGGTAALGCLVKDYFPEPVTVSWNSGALTSGVHTFPAVLQSSGLYSLSSVVTVPSSSLGTQTYICNVNHKPSNTKVDKRVEPKSCHHHHHH light: QVQLVQSGGGVVQPGRSLRLSCKASGYTFTRYTMHWVRQAPGKGLEWIGYINPSRGYTNYNQKVKDRFTISRDNSKNTAFLQMDSLRPEDTGVYFCARYYDDHYSLDYWGQGTPVTVSSGGGGSGGGGSGGGGSDIQMTQSPSSLSASVGDRVTITCSASSSVSYMNWYQQTPGKAPKRWIYDTSKLASGVPSRFSGSGSGTDYTFTISSLQPEDIATYYCQQWSSNPFTFGQGTKLQITRGGGGSDIQMTQSPASLSASLGETVSIECLASEDIYSYLAWYQQKPGKSPQLLIFAANRLQDGVPSRFSGSGSGTQFSLKISGMQPEDEGDYFCLQGSKFPYTFGPGTKLELNRTVAAPSVFIFPPSDEQLKSGTASVVCLLNNFYPREAKVQWKVDNALQSGNSQESVTEQDSKDSTYSLSSTLTLSKADYEKHKVYACEVTHQGLSSPVTKSFNRGEC | 12.3 | 0.039
Antibody 24 (bispecific antibody, human IgG1, kappa, L234A L235A, B3 IgG with hOKT3 scFv fused to the light chain N-terminus) heavy: not shown light: QVQLVQSGGGVVQPGRSLRLSCKASGYTFTRYTMHWVRQAPGKGLEWIGYINPSRGYTNYNQKVKDRFTISRDNSKNTAFLQMDSLRPEDTGVYFCARYYDDHYSLDYWGQGTPVTVSSGGGGSGGGGSGGGGSDIQMTQSPSSLSASVGDRVTITCSASSSVSYMNWYQQTPGKAPKRWIYDTSKLASGVPSRFSGSGSGTDYTFTISSLQPEDIATYYCQQWSSNPFTFGQGTKLQITRGGGGSDIQMTQSPASLSASLGETVSIECLASEDIYSYLAWYQQKPGKSPQLLIFAANRLQDGVPSRFSGSGSGTQFSLKISGMQPEDEGDYFCLQGSKFPYTFGPGTKLELNRTVAAPSVFIFPPSDEQLKSGTASVVCLLNNFYPREAKVQWKVDNALQSGNSQESVTEQDSKDSTYSLSSTLTLSKADYEKHKVYACEVTHQGLSSPVTKSFNRGEC | 0.531 | 0.138
